Measured values taken from patent US20120028811, “DEVICE FOR RAPID IDENTIFICATION OF NUCLEIC ACIDS FOR BINDING TO SPECIFIC CHEMICAL TARGETS” (DONGGUK UNIVERSITY, published 2012).

Target: T1, TATA-binding protein (TBP) (UniProt P13393 P13393:1-240)
T1 sequence: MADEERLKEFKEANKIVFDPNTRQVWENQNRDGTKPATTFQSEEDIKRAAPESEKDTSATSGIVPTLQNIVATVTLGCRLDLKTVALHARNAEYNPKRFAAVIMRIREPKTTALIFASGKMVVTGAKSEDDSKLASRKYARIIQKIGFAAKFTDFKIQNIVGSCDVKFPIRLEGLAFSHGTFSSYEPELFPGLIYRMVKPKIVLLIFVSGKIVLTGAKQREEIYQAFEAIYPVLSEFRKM
Experiment: fluorescence microscopy of TBP in sol-gel; binding buffer 25 mM Tris pH 8, 100 mM NaCl, 25 mM KCl, 10 mM MgCl2
Conditions: tags: His-tag, full length, expressed in E. coli BL21-DE3; label: 5'-Cy3 on top strand
Method: Sol-gels with TBP were enclosed with the PDMS lid. After encapsulation, the channels were washed extensively with the PBS buffer (binding buffer) by connecting one end of the main channel to a syringe pump (Pump 11, Harvard Apparatus, Holliston, Mass.). Following the pre-washing step, the silicate gel spot was blocked for 1 hour with 1× binding buffer that contained 25 mM Tris-Cl (pH 8), 100 mM NaCl, 25 mM KCl and 10 mM MgCl₂ with 5% skim milk. The blocking buffer works as a nonspecific competitor in the reaction mixture, which helps to achieve the selection of high-affinity molecules. […] After binding, the interaction of immobilized TBP proteins and Cy-3 labeled TATA DNA was monitored by fluorescence microscopy.
The Cy-3-labeled TATA DNA has a high affinity for TBP similar to that of the conventionally selected aptamers. […] The measured melting point of TATA DNA was 72° C. […] The fluorescence intensity of the sol-gel except for the negative sol-gel was detected under the fluorescent microscope (FIG. 6).

B1: TATA DNA (dsDNA)
DNA 1: GGGAATTCGGGCTATAAAAGGGGGATCCGG
DNA 2: CCGGATCCCCCTTTTATAGCCCGAATTCCC
Question: Does B1 bind?
Answer: binds
